Measurements from patent publication US20240190983A1 (JULIUS MAXIMILIANS UNIVERSIT T W RZBURG, published 2024).

B1: C4-Fab1 (Fab)
light: MNFGFSLIFLVLVLKGVQCEVKLVPRQLDYKDDDDKELDIVMTQSHKFMSTSVGDRVSITCKASQDVDTAVAWYQQKPGQSPKLLIYWASTRHTGVPDRFTGSGSGTDYTLTISSVQAEDLARYYCQQYYSVPPTFGGGTKLGSEIKRTVAAPSVFIFPPSDEQLKSGTASVVCLLNNFYPREAKVQWKVDNALQSGNSQESVTEQDSKDSTYSLSSTLTLSKADYEKHKVYACEVTHQGLSSPVTKSFNRGEC
heavy: MNFGFSLIFLVLVLKGVQCEVKLVPRQLDYKDDDDKELQVQLLQSGPELVKPGASVKLSCKASGYSFTSYDINWVKQRPGQGLEWVGWIYPRDGDTKYNEKFKGKAILTVDTSSNTAYMNLHSLTSEDSAVYFCARLTGPYWYFDVWGTGTTVTVSSGSSSASTKGPSVFPLAPSSKSTSGGTAALGCLVKDYFPEPVTVSWNSGALTSGVHTFPAVLQSSGLYSLSSVVTVPSSSLGTQTYICNVNHKPSNTKVDKKVEPKSCDKTHT
B2: C4-IgG1(N297A)-HC:TNC (antibody)
light: B1 light
heavy: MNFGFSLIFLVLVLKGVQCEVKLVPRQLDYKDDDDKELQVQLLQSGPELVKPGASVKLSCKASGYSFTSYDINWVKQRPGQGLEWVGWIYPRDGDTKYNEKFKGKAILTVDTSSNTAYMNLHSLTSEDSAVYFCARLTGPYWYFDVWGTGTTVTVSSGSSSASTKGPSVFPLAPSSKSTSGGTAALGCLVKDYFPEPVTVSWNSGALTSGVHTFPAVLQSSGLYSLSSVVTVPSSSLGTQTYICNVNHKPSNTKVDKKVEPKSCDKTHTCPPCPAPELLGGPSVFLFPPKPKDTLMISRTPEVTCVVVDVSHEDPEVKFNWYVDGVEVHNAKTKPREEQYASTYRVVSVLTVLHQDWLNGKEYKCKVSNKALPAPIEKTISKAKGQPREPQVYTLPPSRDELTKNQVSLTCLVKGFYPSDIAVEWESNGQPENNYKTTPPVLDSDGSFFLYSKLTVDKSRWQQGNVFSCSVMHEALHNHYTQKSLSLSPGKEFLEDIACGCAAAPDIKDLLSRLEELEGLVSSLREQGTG
B3: C4-Fab2 (antibody)
light: B1 light
heavy: MNFGFSLIFLVLVLKGVQCEVKLVPRQLQVQLLQSGPELVKPGASVKLSCKASGYSFTSYDINWVKQRPGQGLEWVGWIYPRDGDTKYNEKFKGKAILTVDTSSNTAYMNLHSLTSEDSAVYFCARLTGPYWYFDVWGTGTTVTVSSGSSSASTKGPSVFPLAPSSKSTSGGTAALGCLVKDYFPEPVTVSWNSGALTSGVHTFPAVLQSSGLYSLSSVVTVPSSSLGTQTYICNVNHKPSNTKVDKKVEPKSCDKTHTCPPCPA
B4: C4-IgG1(N297A) (antibody)
light: B1 light
heavy: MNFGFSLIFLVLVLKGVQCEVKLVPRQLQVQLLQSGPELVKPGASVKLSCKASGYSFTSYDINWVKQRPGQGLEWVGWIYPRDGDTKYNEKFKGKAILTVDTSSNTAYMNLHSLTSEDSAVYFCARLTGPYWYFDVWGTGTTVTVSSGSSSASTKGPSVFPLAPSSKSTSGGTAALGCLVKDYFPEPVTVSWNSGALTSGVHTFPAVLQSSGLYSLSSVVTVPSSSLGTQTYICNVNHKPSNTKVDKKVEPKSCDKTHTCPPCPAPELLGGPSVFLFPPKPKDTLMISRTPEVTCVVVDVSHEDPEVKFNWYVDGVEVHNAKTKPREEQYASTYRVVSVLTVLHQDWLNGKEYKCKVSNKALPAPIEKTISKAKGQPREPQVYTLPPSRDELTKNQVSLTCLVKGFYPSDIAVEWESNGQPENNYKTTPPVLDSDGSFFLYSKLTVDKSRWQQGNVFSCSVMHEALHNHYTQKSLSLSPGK
B5: C4-Fab1-LC:scFvC4 (antibody)
light: MNFGFSLIFLVLVLKGVQCEVKLVPRQLDYKDDDDKELDIVMTQSHKFMSTSVGDRVSITCKASQDVDTAVAWYQQKPGQSPKLLIYWASTRHTGVPDRFTGSGSGTDYTLTISSVQAEDLARYYCQQYYSVPPTFGGGTKLGSEIKRTVAAPSVFIFPPSDEQLKSGTASVVCLLNNFYPREAKVQWKVDNALQSGNSQESVTEQDSKDSTYSLSSTLTLSKADYEKHKVYACEVTHQGLSSPVTKSFNRGECLEQVQLLQSGPELVKPGASVKLSCKASGYSFTSYDINWVKQRPGQGLEWVGWIYPRDGDTKYNEKFKGKAILTVDTSSNTAYMNLHSLTSEDSAVYFCARLTGPYWYFDVWGTGTTVTVSSRSSTKGPKLEEGEFSEAQLDIVMTQSHKFMSTSVGDRVSITCKASQDVDTAVAWYQQKPGQSPKLLIYWASTRHTGVPDRFTGSGSGTDYTLTISSVQAEDLARYYCQQYYSVPPTFGGGTKLEIK
heavy: B1 heavy
B6: C4(scFv)-IgG1(N297A) (antibody)
light: MNFGFSLIFLVLVLKGVQCEVKLVPRQLDYKDDDDKEFQVQLLQSGPELVKPGASVKLSCKASGYSFTSYDINWVKQRPGQGLEWVGWIYPRDGDTKYNEKFKGKAILTVDTSSNTAYMNLHSLTSEDSAVYFCARLTGPYWYFDVWGTGTTVTVSSRSSTKGPKLEEGEFSEAQLDIVMTQSHKFMSTSVGDRVSITCKASQDVDTAVAWYQQKPGQSPKLLIYWASTRHTGVPDRFTGSGSGTDYTLTISSVQAEDLARYYCQQYYSVPPTFGGGTKLEIKGSEIKRTVAAPSVFIFPPSDEQLKSGTASVVCLLNNFYPREAKVQWKVDNALQSGNSQESVTEQDSKDSTYSLSSTLTLSKADYEKHKVYACEVTHQGLSSPVTKSFNRGEC
heavy: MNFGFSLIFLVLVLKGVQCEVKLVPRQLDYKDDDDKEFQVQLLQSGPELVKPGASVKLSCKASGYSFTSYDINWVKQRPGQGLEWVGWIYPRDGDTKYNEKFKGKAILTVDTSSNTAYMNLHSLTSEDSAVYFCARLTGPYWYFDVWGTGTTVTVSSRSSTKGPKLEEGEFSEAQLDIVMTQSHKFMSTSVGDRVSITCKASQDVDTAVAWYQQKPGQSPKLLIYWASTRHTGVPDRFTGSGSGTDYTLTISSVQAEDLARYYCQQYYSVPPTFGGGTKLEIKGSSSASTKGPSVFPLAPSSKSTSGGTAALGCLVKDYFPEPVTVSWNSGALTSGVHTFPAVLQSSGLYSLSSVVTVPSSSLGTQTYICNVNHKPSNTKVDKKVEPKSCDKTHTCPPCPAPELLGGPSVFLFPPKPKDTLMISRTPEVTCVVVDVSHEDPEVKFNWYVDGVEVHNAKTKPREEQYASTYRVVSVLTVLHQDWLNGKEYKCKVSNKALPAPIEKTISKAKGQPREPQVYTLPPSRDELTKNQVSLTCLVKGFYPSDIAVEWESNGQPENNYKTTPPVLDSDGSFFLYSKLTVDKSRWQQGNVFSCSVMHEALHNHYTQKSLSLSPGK
B7: C4(scFv)-IgG1(N297A)-HC:TNC (antibody)
light: B6 light
heavy: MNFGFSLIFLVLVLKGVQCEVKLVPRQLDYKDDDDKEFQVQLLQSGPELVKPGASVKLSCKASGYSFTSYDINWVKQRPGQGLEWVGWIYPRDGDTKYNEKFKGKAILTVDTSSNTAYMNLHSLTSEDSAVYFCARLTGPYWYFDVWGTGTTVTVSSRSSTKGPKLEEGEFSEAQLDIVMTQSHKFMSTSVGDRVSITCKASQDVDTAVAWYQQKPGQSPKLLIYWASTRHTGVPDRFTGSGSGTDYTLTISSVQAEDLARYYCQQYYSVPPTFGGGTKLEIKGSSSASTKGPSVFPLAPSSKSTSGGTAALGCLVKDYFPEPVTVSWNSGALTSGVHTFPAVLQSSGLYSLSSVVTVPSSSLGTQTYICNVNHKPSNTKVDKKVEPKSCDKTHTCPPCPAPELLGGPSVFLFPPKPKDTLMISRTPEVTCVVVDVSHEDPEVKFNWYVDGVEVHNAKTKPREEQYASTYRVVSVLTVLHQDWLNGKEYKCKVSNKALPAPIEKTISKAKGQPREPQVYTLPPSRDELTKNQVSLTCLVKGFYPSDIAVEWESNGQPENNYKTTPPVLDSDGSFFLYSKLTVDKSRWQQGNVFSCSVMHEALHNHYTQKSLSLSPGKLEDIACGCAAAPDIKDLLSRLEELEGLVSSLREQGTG
B8: C4-Fab2-LC:scFvC4 (antibody)
light: B5 light
heavy: B3 heavy
B9: C31-2-IgG1(N297A)-LC:GpL (antibody)
light: EVKLVPRQLDYKDDDDKELQAVVTQESALTTSPGETVTLTCRSSTGAVTTSNYANWVQEKPDHLFTGLIGGTNNRAPGVPARFSGSVIGDKAALTITGAQTEDEAIYFCALWYSNHWVFGGGTKLTVLGGSEIKRTVAAPSVFIFPPSDEQLKSGTASVVCLLNNFYPREAKVQWKVDNALQSGNSQESVTEQDSKDSTYSLSSTLTLSKADYEKHKVYACEVTHQGLSSPVTKSFNRGECLEKPTENNEDFNIVAVASNFATTDLDADRGKLPGKKLPLEVLKEMEANARKAGCTRGCLICLSHIKCTPKMKKFIPGRCHTYEGDKESAQGGIGEAIVDIPEIPGFKDLEPMEQFIAQVDLCVDCTTGCLKGLANVQCSDLLKKWLPQRCATFASKIQGQVDKIKGAGGD
heavy: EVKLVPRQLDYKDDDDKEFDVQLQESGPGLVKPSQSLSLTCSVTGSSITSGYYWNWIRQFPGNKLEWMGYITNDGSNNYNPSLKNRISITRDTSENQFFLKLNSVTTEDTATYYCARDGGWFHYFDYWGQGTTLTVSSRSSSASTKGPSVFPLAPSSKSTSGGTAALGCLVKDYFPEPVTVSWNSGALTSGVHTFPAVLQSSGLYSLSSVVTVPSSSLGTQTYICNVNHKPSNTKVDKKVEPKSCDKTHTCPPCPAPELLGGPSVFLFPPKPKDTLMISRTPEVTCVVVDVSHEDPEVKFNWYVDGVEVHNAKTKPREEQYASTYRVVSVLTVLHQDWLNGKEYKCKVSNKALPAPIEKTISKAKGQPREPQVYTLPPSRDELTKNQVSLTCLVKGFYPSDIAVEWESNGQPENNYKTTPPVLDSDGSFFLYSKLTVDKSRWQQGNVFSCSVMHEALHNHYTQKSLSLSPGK
notes: copies: 2 + 2
B10: C29-IgG1(N297A)-LC:GpL (antibody)
light: EVKLVPRQLDYKDDDDKELDVVMTQTPLSLPVSLGDQASISCRASQSLVHSNGNTYLQWYLQKPGQSPKLLIYKVSNRFSGVPDRFSGSGSGTDFTLKISRVEAEDLGVFFCSQSTHVPFTFGSGTKLEIKGSEIKRTVAAPSVFIFPPSDEQLKSGTASVVCLLNNFYPREAKVQWKVDNALQSGNSQESVTEQDSKDSTYSLSSTLTLSKADYEKHKVYACEVTHQGLSSPVTKSFNRGECLEKPTENNEDFNIVAVASNFATTDLDADRGKLPGKKLPLEVLKEMEANARKAGCTRGCLICLSHIKCTPKMKKFIPGRCHTYEGDKESAQGGIGEAIVDIPEIPGFKDLEPMEQFIAQVDLCVDCTTGCLKGLANVQCSDLLKKWLPQRCATFASKIQGQVDKIKGAGGD
heavy: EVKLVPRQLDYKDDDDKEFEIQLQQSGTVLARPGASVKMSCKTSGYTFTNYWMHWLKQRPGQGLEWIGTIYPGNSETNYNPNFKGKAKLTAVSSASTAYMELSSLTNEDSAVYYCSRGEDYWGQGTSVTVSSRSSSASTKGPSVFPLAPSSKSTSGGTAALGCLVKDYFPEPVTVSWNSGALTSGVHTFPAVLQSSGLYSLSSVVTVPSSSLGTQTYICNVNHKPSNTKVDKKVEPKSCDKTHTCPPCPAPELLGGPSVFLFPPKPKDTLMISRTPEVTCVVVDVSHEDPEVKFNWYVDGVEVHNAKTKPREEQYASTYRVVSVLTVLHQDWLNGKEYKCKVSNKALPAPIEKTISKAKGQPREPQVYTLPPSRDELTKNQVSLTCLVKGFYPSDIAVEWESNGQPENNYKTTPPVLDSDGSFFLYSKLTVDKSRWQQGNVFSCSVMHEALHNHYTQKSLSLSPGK
notes: copies: 2 + 2
B11: (68/69)-IgG1(N297A)-LC:GpL (antibody)
light: EVKLVPRQLDYKDDDDKELDVQMTQSPSSLSASVGDRVTITCKASQDINKFIAWYQQKPGKAPKLLIHYTSTLQPGIPSRFSGSGSGRDYTFTISSLQPEDIATYYCLQYGNLWTFGGGTKVEIKGSEIKRTVAAPSVFIFPPSDEQLKSGTASVVCLLNNFYPREAKVQWKVDNALQSGNSQESVTEQDSKDSTYSLSSTLTLSKADYEKHKVYACEVTHQGLSSPVTKSFNRGECLEKPTENNEDFNIVAVASNFATTDLDADRGKLPGKKLPLEVLKEMEANARKAGCTRGCLICLSHIKCTPKMKKFIPGRCHTYEGDKESAQGGIGEAIVDIPEIPGFKDLEPMEQFIAQVDLCVDCTTGCLKGLANVQCSDLLKKWLPQRCATFASKIQGQVDKIKGAGGD
heavy: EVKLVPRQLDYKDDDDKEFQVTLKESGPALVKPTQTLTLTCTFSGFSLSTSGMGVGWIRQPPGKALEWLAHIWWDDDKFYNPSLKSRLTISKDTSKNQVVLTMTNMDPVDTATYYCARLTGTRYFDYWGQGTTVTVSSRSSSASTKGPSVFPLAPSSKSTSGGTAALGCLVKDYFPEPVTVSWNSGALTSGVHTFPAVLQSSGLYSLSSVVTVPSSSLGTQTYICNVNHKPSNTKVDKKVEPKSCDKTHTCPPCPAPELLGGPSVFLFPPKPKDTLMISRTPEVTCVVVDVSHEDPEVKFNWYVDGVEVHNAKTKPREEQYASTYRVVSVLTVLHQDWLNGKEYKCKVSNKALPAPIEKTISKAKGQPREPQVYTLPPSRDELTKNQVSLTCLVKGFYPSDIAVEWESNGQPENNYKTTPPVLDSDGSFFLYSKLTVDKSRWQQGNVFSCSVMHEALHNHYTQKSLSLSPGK
notes: Gaussia princeps luciferase (GpL) fused to the light chain; copies: 2 + 2

Biological target: T1, Human TNFR2 (human, UniProt P20333 23-461)
T1 sequence: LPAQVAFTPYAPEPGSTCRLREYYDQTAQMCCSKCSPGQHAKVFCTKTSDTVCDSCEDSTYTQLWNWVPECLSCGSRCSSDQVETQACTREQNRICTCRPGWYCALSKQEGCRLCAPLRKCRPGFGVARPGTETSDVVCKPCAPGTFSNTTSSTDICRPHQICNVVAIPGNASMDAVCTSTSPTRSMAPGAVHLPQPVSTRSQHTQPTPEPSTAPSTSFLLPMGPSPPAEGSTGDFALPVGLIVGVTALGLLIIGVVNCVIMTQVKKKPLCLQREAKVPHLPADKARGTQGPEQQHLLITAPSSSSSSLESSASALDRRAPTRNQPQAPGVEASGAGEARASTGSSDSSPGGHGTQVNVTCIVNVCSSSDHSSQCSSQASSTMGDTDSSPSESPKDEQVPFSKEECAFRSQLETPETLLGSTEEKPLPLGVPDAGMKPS
Test: cell-based or functional assay

| Binder | Activity I (IL8) | Activity II (tox) |
| --- | --- | --- |
| B1 | 0 ng/mL | 0 ng/mL |
| B2 | 100 ng/mL | – |
| B3 | 0 ng/mL | 0 ng/mL |
| B4 | 0 ng/mL | 0 ng/mL |
| B5 | 10 ng/mL | 20 ng/mL |
| B6 | – | 20 ng/mL |
| B7 | – | 10 ng/mL |
| B8 | 50 ng/mL | – |

Biological target: T1, Human TNFR2
Test: equilibrium binding of the GpL fusion protein to HeLa-TNFR2 cells, 37 °C; unspecific binding on HeLa cells subtracted; cell-bound luciferase
Protocol: FIG. 11—Binding properties of TNFR2-specific antibodies. (A) Equilibrium binding of the indicated anti-TNFR2 antibody GpL fusion proteins to cell expressed human TNFR2 at 37° C. (B) HeLa-TNFR2 cells were pretreated with the indicated amounts of anti-TNFR2 antibodies or remained untreated. […] Binding of the various constructs to untransfected HeLa cells was analyzed to obtain unspecific binding values.
Affinity of TNFR2-specific antibodies and antibody variants were also evaluated with HeLa cells and HeLa cells stably expressing human TNFR2. HeLa and HeLa-TNFR2 cells were seeded out in 24-well plates. Next day, the cells were challenged with the indicated concentrations of GpL-labelled TNFR2 antibodies for 1 hour at 37° C. To eliminate the unbound antibodies, the cells were washed 10 times with ice-cold PBS. The cells were then scratched and collected in 50 μl of medium (RPMI, 0.5% FCS) and transferred to black 96-well plates for measurement as mentioned above. The specific binding of different TNFR2-specific antibodies/antibody variants was calculated by subtracting the unspecific binding (values obtained from HeLa cells) from total binding (obtained from HeLa-TNFR2). The resulting values were fitted using the non-linear regression analysis option of GraphPad Prism 5.

| Binder | Bmax | Kd |
| --- | --- | --- |
| B9 | 890 kRLU | 2.19 µg/mL |
| B10 | 250 kRLU | 0.8 µg/mL |
| B11 | 1130 kRLU | 0.044 µg/mL |
